Laboratory results taken from PMC6105217, “Modification of translation factor aIF5A from Sulfolobus solfataricus” (Extremophiles, 2018).

Target: the molecule itself
Experiment: SEC-MALS; Superdex S200 10/300 GL increase, 20 mM Tris-HCl pH 7.5, 150 mM NaCl, 25 °C; protein pre-incubated at 65 °C for 10 min, 100 µl injected at 1.5 mg/ml

B1: recombinant aDHS-C-His (enzyme, Sulfolobus solfataricus, UniProt Q97ZF1 1-312, looked up)
chain: MINREDLLKNPVEDITLSDLKKYNDIVSVFDKIYGFSSEGIVNGSKILKEMIKNADLRFLSFTANLVSTGLRGLFADLIKKGYFNIVVTTGGTIDHDLARSFGGVYYKGSFDIDDTMLKDLEIHRLGNVLVPFESYGKVIEDVVRKFLPEITKDRKEISAYELLWEFGKRITDSNSILRAAYDKNVPIIVPGILDGSFGTNLFIQSQFLNFRINLFEDMRLIKDLIFSSKKSGALIIGGGISKHHTIWWNQFKDGLNYAIYITTAQEYDGSLSGAKPREAISWNKIRPDAKHVTIYGDATIIVPILAASLLS
notes: deoxyhypusine synthase, Sulfolobus solfataricus P2, ORF SSO0967, amplified by PCR from genomic DNA; source: E. coli BL21 (DE3) (pQE-70-DHS-C-His), purified (Ni-NTA); not shown: His-tag, C-terminal, kept
With B1 the “stoichiometry N” value was 4.
